Measured values published in US20210009683A1.

T1: CLEC-2 on washed mouse platelet (mouse) (UniProt Q9JL99)
T1 sequence (looked up): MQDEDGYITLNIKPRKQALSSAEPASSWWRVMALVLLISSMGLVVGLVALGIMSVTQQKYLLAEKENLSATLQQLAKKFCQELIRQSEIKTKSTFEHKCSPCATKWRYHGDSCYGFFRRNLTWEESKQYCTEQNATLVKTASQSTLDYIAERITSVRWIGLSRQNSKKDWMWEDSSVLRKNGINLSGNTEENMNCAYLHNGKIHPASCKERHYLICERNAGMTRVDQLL


Biological target: T1, CLEC-2 on washed mouse platelet (mouse)
Assay: cell-based or functional assay

Binder | platelet aggregation-starting time (light transmittance, washed mouse platelet mixed with CHO cells) [min] | delay of the start of platelet aggregation against CHO/Aggrus-WT [min]
wild-type human Aggrus expressed in CHO cells (CHO/Aggrus-WT) (ligand, UniProt Q86YL7 23-162, looked up) ASTGQPEDDTETTGLEGGVAMPGAEDDVVTPGTSEDRYKSGLTTLVATSVNSVTGIRIEDLPTSESTVHAQEQSPSATASNVATSHSTEKVDGDTQTTVEKDGLSTVTLVGIIVGVLLAIGFIGAIIVVVMRKMSGRYSP | 6 | 
Aggrus-D48A expressed in CHO cells (CHO/Aggrus-D48A) (ligand, human, UniProt Q86YL7 23-162, looked up) ASTGQPEDDTETTGLEGGVAMPGAEADVVTPGTSEDRYKSGLTTLVATSVNSVTGIRIEDLPTSESTVHAQEQSPSATASNVATSHSTEKVDGDTQTTVEKDGLSTVTLVGIIVGVLLAIGFIGAIIVVVMRKMSGRYSP | 14 | 8
